Consider eight proteins from EP2559758A1, “Modified glyceraldehyde-3-phosphate dehydrogenase from corynebacterium glutamicum and uses thereof” (Technische Universität Hamburg-Harburg, priority 2011, dated 2013).

Substrate in data set [1]: NC(=O)c1ccc[n+]([C@@H]2O[C@H](COP(=O)(O)OP(=O)(O)OC[C@H]3O[C@@H](n4cnc5c(N)ncnc54)[C@H](OP(=O)(O)O)[C@@H]3O)[C@@H](O)[C@H]2O)c1
As to the kind of experiment: GAPDH enzyme activity, coenzyme kinetics (NAD(P)H absorbance at 340 nm). The format is biochemical, C. glutamicum. The following applies: coenzyme varied, 25°C, pH 8.5, 1.5 mM glyceraldehyde-3-phosphate, 50 mM Na2HPO4, mean ± S.D. As to the method: (§1) The above recombinant E. coli strains were cultured at 37°C in LB medium containing 100 mg/L kanamycine until an OD600 of 0.6 was reached. Then, (isopropyl-beta-D-thiogalactopyranoside (IPTG) was added to the medium to a final concentration of 0.1 mM, and the bacteria were cultured at 20°C for another 12-14 h. The E. coli cells were then harvested and washed and suspended in the buffer of 50 mM Na2HPO4 (pH 7.5), 0.2 mM EDTA and 0.1 mM dithiothreitol. Suspended cells were disrupted by sonication and centrifuged at 13.000 rpm for 1 h. The supernatant was purified by use of a Ni^2+ NTA column (GE Healthcare Bio-Sciences, Piscataway, NJ).
(§2) The enzyme activity of glyceraldehyde-3-phosphate dehydrogenase was determined by monitoring the change of NAD(P)H in absorbance at 340 nm at 25°C using a Multiskan® spectrophotometer (Thermo Scientific, Germany). Initial rate measurements were carried out in 50 mM triethanolamine hydrochloride buffer (pH 8.5), 0.2 mM EDTA, 50 mM Na2HPO4, 1.5 mM glyceraldehyde-3-phosphate (Clermont et al., 1993). When saturation could be reached, kinetic parameters were obtained from activity measurements with coenzyme concentrations ranging from 0.1 Km to 10 Km. Each rate measurement was run in triplicate. One unit of enzyme activity corresponds to one µmol of NAD(P)H formed per minute. Kinetic constants were obtained from non-linear regression data analysis and expressed as mean ± S.D.
(§3) The kinetic parameters determined for wild-type and mutated forms of glyceraldehyde-3-phosphate dehydrogenase are shown in Table 1. It can be seen that coenzyme specificity of glyceraldehyde-3-phosphate has been changed from NAD to NADP by the introduction of mutations at amino positions 35, 36, 37 and 192. More specifically, mutants comprising amino acid exchanges D35G/L36T/T37K, D35G/L36T/P192S, D35G/L36R/P192S, or D35G/L36T/T37K/P192S show a high catalytic efficiency and can utilize both NAD^+ and NADP^+. Table 1: Kinetic parameters of wild-type and mutated glyceraldehyde-3-phosphate dehydrogenase

Substrate in data set [2]: NC(=O)c1ccc[n+]([C@@H]2O[C@H](COP(=O)(O)OP(=O)(O)OC[C@H]3O[C@@H](n4cnc5c(N)ncnc54)[C@H](O)[C@@H]3O)[C@@H](O)[C@H]2O)c1
Described as above. The following applies: coenzyme varied, 25°C, pH 8.5, 1.5 mM glyceraldehyde-3-phosphate, 50 mM Na2HPO4, mean ± S.D. The format is biochemical, C. glutamicum. As to the method: as §1, §2, §3

Numbering of substitutions follows the chain as printed. In names and notes the source's numbering stands.

B1: C. glutamicum glyceraldehyde-3-phosphate dehydrogenase (gapA) variant D35G/L36T/T37K (Corynebacterium glutamicum ATCC 13032; D35G/L36T/T37K) (protein)
chain: MTIRVGINGFGRIGRNFFRAVLERSDDLEVVAVNGTKDNKTLSTLLKFDSIMGRLGQEVEYDDDSITVGGKRIAVYAERDPKNLDWAAHNVDIVIESTGFFTDANAAKAHIEAGAKKVIISAPASNEDATFVYGVNHESYDPENHNVISGASCTTNCLAPMAKVLNDKFGIENGLMTTVHAYTGDQRLHDAPHRDLRRARAAAVNIVPTSTGAAKAVALVLPELKGKLDGYALRVPVITGSATDLTFNTKSEVTVESINAAIKEAAVGEFGETLAYSEEPLVSTDIVHDSHGSIFDAGLTKVSGNTVKVVSWYDNEWGYTCQLLRLTELVASKL
notes: His-tag (inferred: pET-28a+ NdeI cloning, Ni-NTA purification) (N); His-tag (inferred: reverse primer has no stop codon and reads in frame into the vector's C-terminal His-tag) (C); made in house; host or cells: E. coli BL21 (DE3) CodonPlus RIPL
Regarding B1, in data set [1] (other: D35G/L36T/T37K), the Km was determined as 0.10 ± 0.012 mM, the kcat came to 480 ± 36 min⁻¹ and the kcat/Km worked out at 4800 ± 232 mM/min. Besides, in data set [2] (other: D35G/L36T/T37K), the Michaelis-Menten constant (Km) came to 0.47 ± 0.032 mM, the turnover number (kcat) was determined as 252 ± 33 min⁻¹ and the kcat/Km was 536 ± 48 mM/min.

B2: C. glutamicum glyceraldehyde-3-phosphate dehydrogenase (gapA), Wild-type, SEQ ID NO:1 (Corynebacterium glutamicum ATCC 13032) (protein)
chain: B1 chain with G35D, T36L, K37T
notes: as for B1
Turning to B2, in data set [2] (other: Wild-type), the Michaelis-Menten constant (Km) is 0.048 ± 0.002 mM, the kcat was found to be 387 ± 28 min⁻¹ and the kcat/Km amounted to 8063 ± 540 mM/min.

B3: C. glutamicum glyceraldehyde-3-phosphate dehydrogenase (gapA) variant D35G/L36R (Corynebacterium glutamicum ATCC 13032; D35G/L36R) (protein)
chain: B1 chain with T36R, K37T
notes: as for B1
For B3, in data set [1] (other: D35G/L36R), the Km is 0.31 ± 0.034 mM, the catalytic constant (kcat) came out at 348 ± 26 min⁻¹ and the kcat/Km is 1123 ± 176 mM/min. For the same protein, in data set [2] (other: D35G/L36R), the Michaelis constant (Km) was 0.18 ± 0.017 mM, the kcat is 204 ± 22 min⁻¹ and the kcat/Km was 1134 ± 132 mM/min.

B4: C. glutamicum glyceraldehyde-3-phosphate dehydrogenase (gapA) variant D35G/L36T/T37K/P192S (Corynebacterium glutamicum ATCC 13032; D35G/L36T/P192S/T37K) (protein)
chain: B1 chain with P192S
notes: as for B1
Take B4: in data set [1] (other: D35G/L36T/T37K/P192S), the Michaelis-Menten constant (Km) is recorded as 0.070 ± 0.003 mM, the turnover number (kcat) worked out at 428 ± 45 min⁻¹ and the kcat/Km was determined as 5868 ± 352 mM/min. In addition, in data set [2] (other: D35G/L36T/T37K/P192S), the Km is on record as 0.10 ± 0.014 mM, the kcat stood at 164 ± 12 min⁻¹ and the kcat/Km turned out to be 1640 ± 108 mM/min.

B5: C. glutamicum glyceraldehyde-3-phosphate dehydrogenase (gapA) variant D35G/L36T (Corynebacterium glutamicum ATCC 13032; D35G/L36T) (protein)
chain: B1 chain with K37T
notes: as for B1
For B5, in data set [1] (other: D35G/L36T), the Km was determined as 0.28 ± 0.016 mM, the kcat is 352 ± 52 min⁻¹ and the kcat/Km amounted to 1257 ± 118 mM/min. In data set [2] (other: D35G/L36T), the Michaelis-Menten constant (Km) was found to be 0.22 ± 0.038 mM, the kcat stood at 286 ± 37 min⁻¹ and the kcat/Km was determined as 1300 ± 154 mM/min.

B6: C. glutamicum glyceraldehyde-3-phosphate dehydrogenase (gapA) variant D35G/L36T/P192S (Corynebacterium glutamicum ATCC 13032; D35G/L36T/P192S) (protein)
chain: B1 chain with K37T, P192S
notes: as for B1
Turning to B6, in data set [1] (other: D35G/L36T/P192S), the Km was 0.070 ± 0.003 mM and the kcat is 395 ± 28 min⁻¹. In data set [2] (other: D35G/L36T/P192S), the Michaelis-Menten constant (Km) is recorded as 0.12 ± 0.004 mM, the catalytic constant (kcat) is 227 ± 17 min⁻¹ and the kcat/Km was found to be 1952 ± 113 mM/min.

B7: C. glutamicum glyceraldehyde-3-phosphate dehydrogenase (gapA) variant D35G (Corynebacterium glutamicum ATCC 13032; D35G) (protein)
chain: B1 chain with T36L, K37T
notes: as for B1
Regarding B7, in data set [1] (other: D35G), the Km is recorded as 0.83 ± 0.12 mM, the kcat came to 178 ± 11 min⁻¹ and the kcat/Km worked out at 215 ± 22 mM/min. In data set [2] (other: D35G), the Km amounted to 0.54 ± 0.07 mM, the kcat amounted to 382 ± 32 min⁻¹ and the kcat/Km stood at 707 ± 82 mM/min.

B8: C. glutamicum glyceraldehyde-3-phosphate dehydrogenase (gapA) variant D35G/L36R/P192S (Corynebacterium glutamicum ATCC 13032; D35G/L36R/P192S) (protein)
chain: B1 chain with T36R, K37T, P192S
notes: as for B1
Regarding B8, in data set [1] (other: D35G/L36R/P192S), the Km came out at 0.10 ± 0.012 mM, the kcat was 389 ± 37 min⁻¹ and the kcat/Km amounted to 3885 ± 247 mM/min. In data set [2] (other: D35G/L36R/P192S), the Michaelis-Menten constant (Km) worked out at 0.058 ± 0.002 mM, the kcat turned out to be 172 ± 11 min⁻¹ and the kcat/Km came out at 2954 ± 228 mM/min.

By Km is commonly meant the concentration of substrate that gives half-maximal velocity. As a reminder, the kcat is the number of substrate molecules converted per active site and unit of time at saturation.
